Source: PMC7568657, “SppI Forms a Membrane Protein Complex with SppA and Inhibits Its Protease Activity in Bacillus subtilis” (mSphere, 2020)
Where a chain is given by its changes, count along the chain named. Names may count otherwise. “And” between values parts separate entries of the source, which are not always exact repeats. Equal entries are not always repeated.

B1: 6×His-SppA (enzyme, B. subtilis, UniProt O34525 1-335, looked up)
chain: MNAKRWIALVIALGIFGVSIIVSISMSFFESVKGAQTDLTSLTDESQEKTLENGSPSSKIAVLEVSGTIQDNGDSSSLLGADGYNHRTFLKNLERAKDDKTVKGIVLKVNSPGGGVYESAEIHKKLEEIKKETKKPIYVSMGSMAASGGYYISTAADKIFATPETLTGSLGVIMESVNYSKLADKLGISFETIKSGAHKDIMSPSREMTKEEKNIMQSMVDNSYEGFVDVISKGRGMPKAEVKKIADGRVYDGRQAKKLNLVDELGFYDDTITAMKKDHKDLKNASVISYEESFGLGSLFSMGANKMFKSEIDFLNMREILSQSGSPRMMYLYAK
notes: SppA, membrane protease of Bacillus subtilis, amplified from BSB1 chromosomal DNA; Purified alone it gave at least three bands of 32 to 34 kDa (C-terminal domain partly self-cleaved); purified with SppI the major band was about 36 kDa and still held most of the C terminus; source: E. coli ER2566, purified from the cytoplasmic membrane fraction (1% DDM, Ni-NTA, gel filtration); not shown: 6×His, …
B2: 6×His-SppA^K199A (enzyme, B. subtilis, UniProt O34525 1-335, looked up)
chain: B1 chain with K199A
notes: SppA, membrane protease of Bacillus subtilis, with the active-site mutation K199A; band of about 36 kDa; not shown: 6×His, N-terminal, kept
B3: SppI-FLAG (natural protein, B. subtilis, UniProt O34424 1-164, looked up)
chain: MDATYEELERNDIKGPQEAELLTHAYAGFWVRFWAFLLDWLVIWGLNHLLVSPLFTVLDLPKTSGMFTFSAYSVTTLIVYLAYFALMTKYFRQTLGKMVFGLKVVSVKQDSKLTWSTVIFREVVGRYIDKIWILYIVVAFSPTKQGIHDYIADTTVVHEKLYRK
notes: SppI (formerly YteJ), membrane protein of Bacillus subtilis; not shown: FLAG, C-terminal, kept
B4: 6×His-SppI (natural protein, B. subtilis, UniProt O34424 1-164, looked up)
chain: B3 chain
notes: SppI (formerly YteJ), membrane protein of Bacillus subtilis, amplified from BSB1 chromosomal DNA; source: E. coli ER2566, purified from the membrane fraction (1% DDM, Ni-NTA, gel filtration); not shown: 6×His, N-terminal, kept

How the values were obtained:
SppI-SPA (B. subtilis) = SppI-SPA (B. subtilis) (UniProt O34424); experiment: affinity purification with mass spectrometry; tandem affinity purification of SppI-SPA (calmodulin resin, then anti-FLAG resin) from B. subtilis membranes in 10 mM Tris-Cl pH 7.5, 150 mM NaCl, 1% DDM, 4°C; LC-MS/MS; two independent experiments
[1] = molecular target: the molecule itself; experiment: SEC; gel filtration of affinity-purified proteins on Superdex 200 GL 10/300; apparent sizes against MW markers

Molecule	stoichiometry N (SppA per SppI (by the PAI values)) (SppI-SPA (B. subtilis))	stoichiometry N [1]
SppA (from UniProt O34525 1-335) (enzyme)	1 and 2	–
B1	–	8
B2	–	8
B3	–	8
B4	–	8
